Test results published in article PMC10324447.

Legend:
[1] = biological target: VRC01 IgG1 bound to its antigen (not stated | HIV-1, strain BaL); experiment: ITC
VRC01 IgG1 = experiment: ITC

Kd [1]: 547 nM | Kd (VRC01 IgG1): 150 nM
Substance: human FcγRIIIa-V158, soluble extracellular domain (receptor)
